From the supplement of paper PMC7877785
± gives the uncertainty stated by the source.

Assay: self-splicing fitness, log relative to wild type (ln ratio); higher = more splicing; Tetrahymena group I intron in knt gene, E. coli kanamycin selection, DiMSum; sequences stand for … in CUCUCU…GGAGGGAAAAGUUAUCAGGCAUGCACCUGGUAGCUAGUCUUUAAACCAAUAGAUUGCAUCGGUUUAAAAGGCAAGACCGUCAAAUUGCGGGAAAGGGGUCAACAGCCGUUCAGUACCAAGUCUCAGGGGAAACUUUGAGAUGGCCUUGCAAAGGGUAUGGUAAUAAGCUGACGGACAUGGUCCUAACCACGCAGCCAAGUCCUAAGUCAACAGAUCUUCUGUUGAUAUGGAUGCAGUUCACAGACUAAAUGUCGGUCGGGGAAGAUGUAUUCUUCUCAUAAGAUAUAGUCGGACCUCUCCUUAAUGGGAGCUAGCGGAUGAAGUGAUGCAACACUGGAGCCGCUGGGAACUAAUUUGUAUGCGAAAGUAUAUUGAUUAGUUUUGGAGUACUCGUGGUCG
Outline: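 Six replicate transformations of E. coli BL21(DE3) with a pET-22b(+) library were grown overnight at 37°C or 30°C. The library randomised all eight P1ex-region intron nucleotides, the intron lying in the knt kanamycin-resistance gene, and plates were LB agar with or without 25 μg/mL kanamycin plus 100 μg/mL carbenicillin, 50 μM IPTG and 0.2% rhamnose. Pooled colonies were amplicon-sequenced on an Illumina HiSeq 2500, and fitness is the DiMSum error-weighted combination of wild-type-normalised replicate fold changes, kanamycin versus none.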

Sequence	self-splicing fitness (ln) (30 °C)	self-splicing fitness (ln) (37 °C)
UCCUAGCAAUAUUACGUUGC	-3.64 ± 0.16	-2.74 ± 0.19
CUCCAGCAAUAUUACGGGAC	-2.79 ± 0.11	-2.17 ± 0.14
GACUAGCAAUAUUACGAGAA	-1.29 ± 0.27	-1.53 ± 0.17
GGACAGCAAUAUUACGGGGU	-3.5 ± 0.17	-2.17 ± 0.12
CGGCAGCAAUAUUACGGCCG	-3.13 ± 0.39	-1.42 ± 0.39
GUGCAGCAAUAUUACGUCCC	-0.912 ± 0.35	-0.124 ± 0.26
GGUCAGCAAUAUUACGCACU	-2.12 ± 0.27	-0.976 ± 0.24
CACCAGCAAUAUUACGAAAG	-0.231 ± 0.041	-0.141 ± 0.064
GAGGAGCAAUAUUACGUCUC	–	-0.811 ± 0.49
GUGUAGCAAUAUUACGAGAG	–	-1.52 ± 0.47
GACGAGCAAUAUUACGAUCG	-2.3 ± 0.23	-2.03 ± 0.19
UUUAAGCAAUAUUACGCAUA	-3.17 ± 0.2	-0.829 ± 0.14
CUACAGCAAUAUUACGCACA	-3.12 ± 0.2	-3.29 ± 0.27
UUUGAGCAAUAUUACGUUUC	–	-2.62 ± 0.35
AUAAAGCAAUAUUACGAUUA	-0.144 ± 0.073	0.683 ± 0.095
UCGAAGCAAUAUUACGCGUC	–	-0.484 ± 0.32
UCAGAGCAAUAUUACGAGAU	-3.74 ± 0.33	-2.09 ± 0.37
CAUUAGCAAUAUUACGGGUU	-2.27 ± 0.11	-0.829 ± 0.12
GACUAGCAAUAUUACGGCGG	-3.72 ± 0.21	-2.14 ± 0.13
ACACAGCAAUAUUACGACGA	-0.721 ± 0.074	-0.406 ± 0.081
GGACAGCAAUAUUACGAAAG	-3.73 ± 0.33	-2.88 ± 0.43
AACAAGCAAUAUUACGGGUU	-2.34 ± 0.11	-2.91 ± 0.16
AAUGAGCAAUAUUACGUAAC	-3.92 ± 0.27	-2.45 ± 0.21
AUCGAGCAAUAUUACGAUCU	-1.58 ± 0.086	-0.957 ± 0.08
ACCUAGCAAUAUUACGUAAA	-2.13 ± 0.096	-1.47 ± 0.12

Sequence	self-splicing fitness (ln) (30 °C)	self-splicing fitness (ln) (37 °C)
ACGCAGCAAUAUUACGAAUG	-2.51 ± 0.086	-1.2 ± 0.097
CUCCAGCAAUAUUACGACUC	-3.66 ± 0.24	-2.24 ± 0.38
GGCAAGCAAUAUUACGGGGG	-2.86 ± 0.16	-2.54 ± 0.22
GGCGAGCAAUAUUACGAGCG	-0.88 ± 0.14	-0.433 ± 0.17
CAUGAGCAAUAUUACGUUAG	-1.86 ± 0.081	-1.11 ± 0.082
GACAAGCAAUAUUACGCAUU	-2.91 ± 0.089	-1.96 ± 0.11
CCGCAGCAAUAUUACGUGCA	-3.71 ± 0.33	-1.54 ± 0.14
GUGGAGCAAUAUUACGGGGG	-3.36 ± 0.44	–
GCGAAGCAAUAUUACGGUCG	-3.65 ± 0.32	-2.77 ± 0.4
CUAUAGCAAUAUUACGUCUA	-3.05 ± 0.36	-3.16 ± 0.35
GGCAAGCAAUAUUACGUGCA	-0.303 ± 0.068	-0.635 ± 0.074
AGAAAGCAAUAUUACGGUAC	-3.29 ± 0.32	-1.67 ± 0.23
GAAUAGCAAUAUUACGGCCG	-0.339 ± 0.18	-0.0585 ± 0.21
GGGUAGCAAUAUUACGACGC	-1.08 ± 0.14	0.108 ± 0.25
AGGGAGCAAUAUUACGGAGC	-2.84 ± 0.38	-1.95 ± 0.48
CAAUAGCAAUAUUACGCAAA	-3.95 ± 0.3	-2.6 ± 0.27
CAUAAGCAAUAUUACGAUCC	-3.25 ± 0.23	-2.71 ± 0.32
UGAUAGCAAUAUUACGACAG	-1.41 ± 0.11	-1.59 ± 0.1
GGUAAGCAAUAUUACGCACG	0.408 ± 0.12	-0.102 ± 0.14
UGUUAGCAAUAUUACGCAUA	-1.72 ± 0.21	-0.397 ± 0.16
UGAGAGCAAUAUUACGUAGA	-2.94 ± 0.33	-1.28 ± 0.35
GUUCAGCAAUAUUACGGGUG	-1.49 ± 0.09	-0.763 ± 0.089
GAGAAGCAAUAUUACGUUUA	-2.13 ± 0.12	-0.99 ± 0.12
CCCUAGCAAUAUUACGUCAC	-2.55 ± 0.24	-1.44 ± 0.34
